Assay results published in US9212226B2, “Amino acid sequences directed against CXCR4 and other GPCRs and compounds comprising the same” (Ablynx N.V., priority 2008, dated 2015).
Each block holds one molecule with its values, some of them ahead of it.

Key:
CXCR3 = target: T1, CXCR3 (Homo sapiens, UniProt P49682); assay: Binding of [125I]-238D2 / [125I]-238D4 to membranes from HEK293T cells expressing CXCR4 or CXCR3; conditions: radiolabelled Nanobody
T1 sequence (P49682 1-368): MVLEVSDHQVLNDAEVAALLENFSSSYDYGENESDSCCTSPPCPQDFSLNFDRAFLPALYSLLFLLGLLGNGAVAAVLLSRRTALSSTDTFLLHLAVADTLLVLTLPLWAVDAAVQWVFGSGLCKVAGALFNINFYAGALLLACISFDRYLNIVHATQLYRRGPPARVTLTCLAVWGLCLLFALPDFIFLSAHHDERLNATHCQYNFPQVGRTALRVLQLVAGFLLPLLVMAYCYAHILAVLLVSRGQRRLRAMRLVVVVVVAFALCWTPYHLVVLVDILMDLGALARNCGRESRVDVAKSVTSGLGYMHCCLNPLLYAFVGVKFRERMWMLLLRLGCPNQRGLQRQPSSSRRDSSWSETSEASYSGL

CXCR4 = CXCR4 (Homo sapiens, UniProt P61073); assay: Phage ELISA binding assay on CHO-CXCR4 versus CHO membranes; design: expressed in transfected cells; host or cells: CHO cells (membrane preparation); conditions: monoclonal phages, CHO-CXCR4 vs CHO membranes
Sequence of CXCR4 (P61073 with tags, fused parts or gaps isoform P61073-2 limits assumed): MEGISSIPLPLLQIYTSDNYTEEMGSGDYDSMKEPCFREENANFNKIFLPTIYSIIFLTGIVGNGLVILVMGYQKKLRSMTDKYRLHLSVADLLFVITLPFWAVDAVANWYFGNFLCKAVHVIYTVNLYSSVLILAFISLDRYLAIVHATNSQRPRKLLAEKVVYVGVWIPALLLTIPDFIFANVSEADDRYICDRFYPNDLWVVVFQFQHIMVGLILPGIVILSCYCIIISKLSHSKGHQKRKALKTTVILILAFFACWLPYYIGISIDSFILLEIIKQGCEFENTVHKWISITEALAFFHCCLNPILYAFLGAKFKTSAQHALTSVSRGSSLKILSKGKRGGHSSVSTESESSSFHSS
Method: FIG. 2. Results from Phage ELISA (as described in example 1.5).
In order to determine binding specificity of the Nanobodies, 15 ul of the produced phage were tested in an Phage ELISA binding assay.
In short, 2 ug in 100 ul PBS of membrane expressing either CXCR4 (CHO-CXCR4) or a non relevant GPCR(CHO) were coated directly on Maxisorp microtiter plates (Nunc) overnight at 4 C. Free binding sites were blocked using 4% Marvel in PBS for 1 h. Next, 15 ul of monoclonal phages was added in 100 ul 1% Marvel PBS for 2 hours. […] Binding specificity (binding to CHO-CXCR4) was determined based on OD values compared to controls (binding to CHO).

- binding to CXCR4 membranes compared to CXCR3 membranes (CXCR3): selectively bind
B1: [^125I]-238D4: 125I-labeled Nanobody 238D4 used as radioligand (protein)
VHH: EVQLMESGGGLVQAGGSLRLSCAASGRTFNNYAMGWFRRAPGKEREFVAAITRSGVRSGVSAIYGDSVKDRFTISRDNAKNTLYLQMNSLKPEDTAVYTCAASAIGSGALRRFEYDYSGQGTQVTVSS

- binding to CXCR4 membranes compared to CXCR3 membranes (CXCR3): selectively bind
B2: [^125I]-238D2: 125I-labeled Nanobody 238D2 used as radioligand (protein)
VHH: EVQLVESGGGLVQTGGSLRLSCAASGFTFSSYAMSWVRQAPGKGLEWVSGIKSSGDSTRYAGSVKGRFTISRDNAKNMLYLQMYSLKPEDTAVYYCAKSRVSRTGLYTYDNRGQGTQVTVSS

- specificity toward CXCR4 expressing membrane compared to non-expressing membrane (CXCR4): high specificity
B3: 238F3: Nanobody (VHH) raised against human CXCR4, SEQ ID NO: 247 (protein)
VHH: EVQLVESGGGLAQAGGSLRLSCAASGRTYAMGWFRQAPGKEREFVTTSRLITDNIIYADSVKGRFTLTRDNGKNTVYLQMDSLKPDDTAVYFCAARQNYSRSVFGAKDYDYWGQGTQVTVSS
modifications: Nanobody, Nanobody constructs or fragments thereof
